Target: the molecule itself
Test: cross-linking; disulfide cross-linking of introduced cysteines in transiently transfected HEK293 cells, untreated or with 10 ug/ml collagen I for 90 min at 37 °C; lysis in 1% Nonidet P-40 buffer with NEM; nonreducing SDS-PAGE on 5% gels, Western blot with anti-DDR1; efficiency as percent dimeric of total DDR1

Row | Protein | dimerization efficiency (percent dimeric of total DDR1) | stoichiometry N
1 | DDR1 residue 415 to cysteine (in the C287S background) (receptor, human, UniProt Q08345 19-913, looked up, discoidin domain receptor 1, isoform DDR1b, human; full-length cDNA in pRK5; The text gives only the range V408C to A417C (10 single mutants); also called one of the 10 mutants V408C to A417C; source: HEK293, transiently transfected, in lysate) DADMKGHFDPAKCRYALGMQDRTIPDSDISASSSWSDSTAARHSRLESSDGDGAWCPAGSVFPKEEEYLQVDLQRLHLVALVGTQGRHAGGLGKEFSRSYRLRYSRDGRRWMGWKDRWGQEVISGNEDPEGVVLKDLGPPMVARLVRFYPRADRVMSVCLRVELYGCLWRDGLLSYTAPVGQTMYLSEAVYLNDSTYDGHTVGGLQYGGLGQLADGVVGLDDFRKSQELRVWPGYDYVGWSNHSFSSGYVEMEFEFDRLRAFQAMQVHSNNMHTLGARLPGGVECRFRRGPAMAWEGEPMRHNLGGNLGDPRARAVSVPLGGRVARFLQCRFLFAGPWLLFSEISFISDVVNNSSPALGGTFPPAPWWPPGPPPTNFSSLELEPRGQQPVAKAEGSCTAILIGCLVAIILLLLLIIALMLWRLHWRRLLSKAERRVLEEELTVHLSVPGDTILINNRPGPREPPPYQEPRPRGNPPHSAPCVPNGSALLLSNPAYRLLLATYARPPRGPGPPTPAWAKPTNTQAYSGDYMEPEKPGAPLLPPPPQNSVPHYAEADIVTLQGVTGGNTYAVPALPPGAVGDGPPRVDFPRSRLRFKEKLGEGQFGEVHLCEVDSPQDLVSLDFPLNVRKGHPLLVAVKILRPDATKNARNDFLKEVKIMSRLKDPNIIRLLGVCVQDDPLCMITDYMENGDLNQFLSAHQLEDKAAEGAPGDGQAAQGPTISYPMLLHVAAQIASGMRYLATLNFVHRDLATRNCLVGENFTIKIADFGMSRNLYAGDYYRVQGRAVLPIRWMAWECILMGKFTTASDVWAFGVTLWEVLMLCRAQPFGQLTDEQVIENAGEFFRDQGRQVYLSRPPACPQGLYELMLRCWSRESEQRPPFSQLHRFLAEDALNTV | > 70% | 
2 | DDR1 G421C (in the C287S background) (receptor, human, UniProt Q08345 19-913, looked up, discoidin domain receptor 1, isoform DDR1b, human; full-length cDNA in pRK5; source: HEK293, transiently transfected, in lysate) DADMKGHFDPAKCRYALGMQDRTIPDSDISASSSWSDSTAARHSRLESSDGDGAWCPAGSVFPKEEEYLQVDLQRLHLVALVGTQGRHAGGLGKEFSRSYRLRYSRDGRRWMGWKDRWGQEVISGNEDPEGVVLKDLGPPMVARLVRFYPRADRVMSVCLRVELYGCLWRDGLLSYTAPVGQTMYLSEAVYLNDSTYDGHTVGGLQYGGLGQLADGVVGLDDFRKSQELRVWPGYDYVGWSNHSFSSGYVEMEFEFDRLRAFQAMQVHSNNMHTLGARLPGGVECRFRRGPAMAWEGEPMRHNLGGNLGDPRARAVSVPLGGRVARFLQCRFLFAGPWLLFSEISFISDVVNNSSPALGGTFPPAPWWPPGPPPTNFSSLELEPRGQQPVAKAEGSPTAILICCLVAIILLLLLIIALMLWRLHWRRLLSKAERRVLEEELTVHLSVPGDTILINNRPGPREPPPYQEPRPRGNPPHSAPCVPNGSALLLSNPAYRLLLATYARPPRGPGPPTPAWAKPTNTQAYSGDYMEPEKPGAPLLPPPPQNSVPHYAEADIVTLQGVTGGNTYAVPALPPGAVGDGPPRVDFPRSRLRFKEKLGEGQFGEVHLCEVDSPQDLVSLDFPLNVRKGHPLLVAVKILRPDATKNARNDFLKEVKIMSRLKDPNIIRLLGVCVQDDPLCMITDYMENGDLNQFLSAHQLEDKAAEGAPGDGQAAQGPTISYPMLLHVAAQIASGMRYLATLNFVHRDLATRNCLVGENFTIKIADFGMSRNLYAGDYYRVQGRAVLPIRWMAWECILMGKFTTASDVWAFGVTLWEVLMLCRAQPFGQLTDEQVIENAGEFFRDQGRQVYLSRPPACPQGLYELMLRCWSRESEQRPPFSQLHRFLAEDALNTV |  | ~4
3 | DDR1 residue 419 to cysteine (in the C287S background) (receptor, human, UniProt Q08345 19-913, looked up, discoidin domain receptor 1, isoform DDR1b, human; full-length cDNA in pRK5; also called TM cysteine mutant, residue 419; source: HEK293, transiently transfected, in lysate) DADMKGHFDPAKCRYALGMQDRTIPDSDISASSSWSDSTAARHSRLESSDGDGAWCPAGSVFPKEEEYLQVDLQRLHLVALVGTQGRHAGGLGKEFSRSYRLRYSRDGRRWMGWKDRWGQEVISGNEDPEGVVLKDLGPPMVARLVRFYPRADRVMSVCLRVELYGCLWRDGLLSYTAPVGQTMYLSEAVYLNDSTYDGHTVGGLQYGGLGQLADGVVGLDDFRKSQELRVWPGYDYVGWSNHSFSSGYVEMEFEFDRLRAFQAMQVHSNNMHTLGARLPGGVECRFRRGPAMAWEGEPMRHNLGGNLGDPRARAVSVPLGGRVARFLQCRFLFAGPWLLFSEISFISDVVNNSSPALGGTFPPAPWWPPGPPPTNFSSLELEPRGQQPVAKAEGSPTAICIGCLVAIILLLLLIIALMLWRLHWRRLLSKAERRVLEEELTVHLSVPGDTILINNRPGPREPPPYQEPRPRGNPPHSAPCVPNGSALLLSNPAYRLLLATYARPPRGPGPPTPAWAKPTNTQAYSGDYMEPEKPGAPLLPPPPQNSVPHYAEADIVTLQGVTGGNTYAVPALPPGAVGDGPPRVDFPRSRLRFKEKLGEGQFGEVHLCEVDSPQDLVSLDFPLNVRKGHPLLVAVKILRPDATKNARNDFLKEVKIMSRLKDPNIIRLLGVCVQDDPLCMITDYMENGDLNQFLSAHQLEDKAAEGAPGDGQAAQGPTISYPMLLHVAAQIASGMRYLATLNFVHRDLATRNCLVGENFTIKIADFGMSRNLYAGDYYRVQGRAVLPIRWMAWECILMGKFTTASDVWAFGVTLWEVLMLCRAQPFGQLTDEQVIENAGEFFRDQGRQVYLSRPPACPQGLYELMLRCWSRESEQRPPFSQLHRFLAEDALNTV |  | ~4
4 | DDR1 residue 418 to cysteine (in the C287S background) (receptor, human, UniProt Q08345 19-913, looked up, discoidin domain receptor 1, isoform DDR1b, human; full-length cDNA in pRK5; source: HEK293, transiently transfected, in lysate) DADMKGHFDPAKCRYALGMQDRTIPDSDISASSSWSDSTAARHSRLESSDGDGAWCPAGSVFPKEEEYLQVDLQRLHLVALVGTQGRHAGGLGKEFSRSYRLRYSRDGRRWMGWKDRWGQEVISGNEDPEGVVLKDLGPPMVARLVRFYPRADRVMSVCLRVELYGCLWRDGLLSYTAPVGQTMYLSEAVYLNDSTYDGHTVGGLQYGGLGQLADGVVGLDDFRKSQELRVWPGYDYVGWSNHSFSSGYVEMEFEFDRLRAFQAMQVHSNNMHTLGARLPGGVECRFRRGPAMAWEGEPMRHNLGGNLGDPRARAVSVPLGGRVARFLQCRFLFAGPWLLFSEISFISDVVNNSSPALGGTFPPAPWWPPGPPPTNFSSLELEPRGQQPVAKAEGSPTACLIGCLVAIILLLLLIIALMLWRLHWRRLLSKAERRVLEEELTVHLSVPGDTILINNRPGPREPPPYQEPRPRGNPPHSAPCVPNGSALLLSNPAYRLLLATYARPPRGPGPPTPAWAKPTNTQAYSGDYMEPEKPGAPLLPPPPQNSVPHYAEADIVTLQGVTGGNTYAVPALPPGAVGDGPPRVDFPRSRLRFKEKLGEGQFGEVHLCEVDSPQDLVSLDFPLNVRKGHPLLVAVKILRPDATKNARNDFLKEVKIMSRLKDPNIIRLLGVCVQDDPLCMITDYMENGDLNQFLSAHQLEDKAAEGAPGDGQAAQGPTISYPMLLHVAAQIASGMRYLATLNFVHRDLATRNCLVGENFTIKIADFGMSRNLYAGDYYRVQGRAVLPIRWMAWECILMGKFTTASDVWAFGVTLWEVLMLCRAQPFGQLTDEQVIENAGEFFRDQGRQVYLSRPPACPQGLYELMLRCWSRESEQRPPFSQLHRFLAEDALNTV |  | ~4
5 | DDR1 residue 420 to cysteine (in the C287S background) (receptor, human, UniProt Q08345 19-913, looked up, discoidin domain receptor 1, isoform DDR1b, human; full-length cDNA in pRK5; also called TM cysteine mutant, residue 420; source: HEK293, transiently transfected, in lysate) DADMKGHFDPAKCRYALGMQDRTIPDSDISASSSWSDSTAARHSRLESSDGDGAWCPAGSVFPKEEEYLQVDLQRLHLVALVGTQGRHAGGLGKEFSRSYRLRYSRDGRRWMGWKDRWGQEVISGNEDPEGVVLKDLGPPMVARLVRFYPRADRVMSVCLRVELYGCLWRDGLLSYTAPVGQTMYLSEAVYLNDSTYDGHTVGGLQYGGLGQLADGVVGLDDFRKSQELRVWPGYDYVGWSNHSFSSGYVEMEFEFDRLRAFQAMQVHSNNMHTLGARLPGGVECRFRRGPAMAWEGEPMRHNLGGNLGDPRARAVSVPLGGRVARFLQCRFLFAGPWLLFSEISFISDVVNNSSPALGGTFPPAPWWPPGPPPTNFSSLELEPRGQQPVAKAEGSPTAILCGCLVAIILLLLLIIALMLWRLHWRRLLSKAERRVLEEELTVHLSVPGDTILINNRPGPREPPPYQEPRPRGNPPHSAPCVPNGSALLLSNPAYRLLLATYARPPRGPGPPTPAWAKPTNTQAYSGDYMEPEKPGAPLLPPPPQNSVPHYAEADIVTLQGVTGGNTYAVPALPPGAVGDGPPRVDFPRSRLRFKEKLGEGQFGEVHLCEVDSPQDLVSLDFPLNVRKGHPLLVAVKILRPDATKNARNDFLKEVKIMSRLKDPNIIRLLGVCVQDDPLCMITDYMENGDLNQFLSAHQLEDKAAEGAPGDGQAAQGPTISYPMLLHVAAQIASGMRYLATLNFVHRDLATRNCLVGENFTIKIADFGMSRNLYAGDYYRVQGRAVLPIRWMAWECILMGKFTTASDVWAFGVTLWEVLMLCRAQPFGQLTDEQVIENAGEFFRDQGRQVYLSRPPACPQGLYELMLRCWSRESEQRPPFSQLHRFLAEDALNTV |  | ~4
6 | DDR1 A417C (in the C287S background) (receptor, human, UniProt Q08345 19-913, looked up, discoidin domain receptor 1, isoform DDR1b, human; full-length cDNA in pRK5; source: HEK293, transiently transfected, in lysate) DADMKGHFDPAKCRYALGMQDRTIPDSDISASSSWSDSTAARHSRLESSDGDGAWCPAGSVFPKEEEYLQVDLQRLHLVALVGTQGRHAGGLGKEFSRSYRLRYSRDGRRWMGWKDRWGQEVISGNEDPEGVVLKDLGPPMVARLVRFYPRADRVMSVCLRVELYGCLWRDGLLSYTAPVGQTMYLSEAVYLNDSTYDGHTVGGLQYGGLGQLADGVVGLDDFRKSQELRVWPGYDYVGWSNHSFSSGYVEMEFEFDRLRAFQAMQVHSNNMHTLGARLPGGVECRFRRGPAMAWEGEPMRHNLGGNLGDPRARAVSVPLGGRVARFLQCRFLFAGPWLLFSEISFISDVVNNSSPALGGTFPPAPWWPPGPPPTNFSSLELEPRGQQPVAKAEGSPTCILIGCLVAIILLLLLIIALMLWRLHWRRLLSKAERRVLEEELTVHLSVPGDTILINNRPGPREPPPYQEPRPRGNPPHSAPCVPNGSALLLSNPAYRLLLATYARPPRGPGPPTPAWAKPTNTQAYSGDYMEPEKPGAPLLPPPPQNSVPHYAEADIVTLQGVTGGNTYAVPALPPGAVGDGPPRVDFPRSRLRFKEKLGEGQFGEVHLCEVDSPQDLVSLDFPLNVRKGHPLLVAVKILRPDATKNARNDFLKEVKIMSRLKDPNIIRLLGVCVQDDPLCMITDYMENGDLNQFLSAHQLEDKAAEGAPGDGQAAQGPTISYPMLLHVAAQIASGMRYLATLNFVHRDLATRNCLVGENFTIKIADFGMSRNLYAGDYYRVQGRAVLPIRWMAWECILMGKFTTASDVWAFGVTLWEVLMLCRAQPFGQLTDEQVIENAGEFFRDQGRQVYLSRPPACPQGLYELMLRCWSRESEQRPPFSQLHRFLAEDALNTV |  | ~4

Source: article PMC4036362, “Normal Activation of Discoidin Domain Receptor 1 Mutants with Disulfide Cross-links, Insertions, or Deletions in the Extracellular Juxtamembrane Region” (The Journal of Biological Chemistry, 2014)
